Like-named read-outs stand apart in the source and are kept apart here.

What all share (assay): SEC; Superdex 200 HR 10/30, cold 1x PBS pH 7.2; native size of each protein from its own elution volume against size standards, dark- or light-incubated (same result in both); PmSB-LOV C53A run only in the mixture with PmlR2
Assay [1] has as its target PmSB-LOV (Pseudomonas mendocina Sensory box-LOV), wild-type tag-free recombinant protein (Pseudomonas mendocina NBRC 14162).
For assay [2] the target is unchanged. The source holds these as a separate data set.
The target of assay [3] is PmlR2 (Pseudomonas mendocina light-inducible transcriptional regulator), tag-free recombinant protein (Pseudomonas mendocina NBRC 14162).
Assay [4] deals with PmlR2-N (1-113 aa), tag-free recombinant protein containing only the HTH DNA-binding domain (Pseudomonas mendocina NBRC 14162).

What is called stoichiometry N is the number of molecules, sites or subunits per partner or assembly. Take “PmSB-LOV (Pseudomonas mendocina Sensory box-LOV), wild-type tag-free recombinant protein (natural protein)”: the stoichiometry N was determined as 3 in assay [1] and 2 in assay [2]. As for “PmlR2 (Pseudomonas mendocina light-inducible transcriptional regulator), tag-free recombinant protein (natural protein)”, the stoichiometry N in assay [3] amounted to 6.

In the case of “PmlR2-N (1-113 aa), tag-free recombinant protein containing only the HTH DNA-binding domain (domain or fragment)”, the stoichiometry N in assay [4] is 2.
